Assay results as given in patent publication US12319739 (F STAR DELTA, dated 2025).
Positions count from the first letter of the chain named.

B1: FS22-172-003-AA/FS28-256-027 (bispecific antibody, human IgG1, kappa, L234A L235A, V domains shown)
VH: EVQLLESGGGLVQPGGSLRLSCAASGFTFTHTYMSWVRQAPGKGLEWVSNISPTYSTTNYADSVKGRFTISRDNNKNTLYLQMNSLRAEDTAVYYCARYNAYHAALDYWGQGTLVTVSS
VL: EIVLTQSPGTLSLSPGERATLSCRASQSVSSSYLAWYQQKPGQAPRLLIYGASSRATGIPDRFSGSGSGTDFTLTISRLEPEDFAVYYCQQTVPYPYTFGQGTKVEIKR
notes: IgG1 mAb^2 with LALA
B2: FS28-256-274 (in CD137 mAb^2 format) (bispecific antibody, V domains shown)
VH: B1 VH with N50T
VL: B1 VL
notes: Position 55 is IMGT numbering
B3: FS22-172-003-AA/FS28-256-273 (bispecific antibody, human IgG1, kappa, L234A L235A, V domains shown)
VH: B1 VH with N50S
VL: B1 VL
notes: IgG1 mAb^2 with LALA
B4: FS22-172-003-AA/FS28-256-272 (bispecific antibody, human IgG1, kappa, L234A L235A, V domains shown)
VH: B1 VH with N50H
VL: B1 VL
notes: IgG1 mAb^2 with LALA
B5: 20H4.9 (antibody, V domains shown)
VH: QVQLQQWGAGLLKPSETLSLTCAVYGGSFSGYYWSWIRQSPEKGLEWIGEINHGGYVTYNPSLESRVTISVDTSKNQFSLKLSSVTAADTAVYYCARDYGPGNYDWYFDLWGRGTLVTVSS
VL: EIVLTQSPATLSLSPGERATLSCRASQSVSSYLAWYQQKPGQAPRLLIYDASNRATGIPARFSGSGSGTDFTLTISSLEPEDFAVYYCQQRSNWPPALTFGGGTKVEIKR

Tests used:
[1] = target: T1, human CD137 on primary human CD8+ T cells (human, UniProt Q07011 24-255); test: cell-based or functional assay
[2] = target: T1, human CD137 on primary human CD8+ T …; test: cell-based or functional assay; remark: listed apart in the source
[3] = target: T2, endogenous cell surface human MSLN (human, UniProt Q13421 296-598); test: flow cytometry, NCI-H226 cells + 20 nM soluble MSLN
T2 construct: whole, on cells; The cell line is named under assay; also called cell-surface MSLN on NCI-H226, OVCAR-3 and AsPC-1 cells
Procedure: (§1) To confirm binding to cell surface MSLN, mAb² listed in Table 9 were analysed for binding to endogenous cell surface MSLN on the human lung cancer cell line NCI-H226. In addition, and because MSLN can be found in blood in a shed soluble form, there is a risk that this circulating MSLN might affect exposure and ultimately potency of our mAb². To confirm that presence of soluble MSLN has minimal impact, additional binding experiments to NCI-H226 cells were performed in the presence of 20 nM soluble MSLN which is 10-20 times the level of soluble MSLN found to be of diagnostic value for defining malignant mesothelioma and lung cancer patients as MSLN positive (Cui et al., 2014). Briefly, NCI-H226 cells (ATCC CRL-5826) were harvested from T175 cell culture flasks using Accutase (Gibco, A11105-01).
(§2) In both cases, cells were centrifuged at 1200 rpm for 3 min and resuspended in ice cold FACS buffer made up of DPBS (Life Technologies, 14190169) and 1% BSA (Sigma-Aldrich, A7906) at 2×10⁶ cells/ml and 50 μl per well was seeded in a 96-well V-bottom plate (Costar, 3894). All antibodies tested were diluted in FACS buffer in 120 μl at a concentration range of 0.01-200 nM (4-fold dilutions). The NCI-H226 cells were then centrifuged, supernatant removed and cells resuspended in 100 μl of each mAb dilution and incubated at 4° C. for 45 min. Cells were washed twice by centrifugation with 150 μl FACS buffer, resuspended in 100 μl containing goat anti-human IgG (γ-chain specific) F(ab')2 fragment-R-Phycoerythrin antibody (Sigma, P8047) diluted 1:1000 in FACS buffer and incubated at 4° C. for 45 min. The cells were washed once with 150 μl FACS buffer and then with 150 μl DPBS, resuspended in 150 μl DPBS containing DAPI (Biotium, 40043) at 1:10.000 and read on the BDCantoII or iQue (Intellicyt).

[4] = target: T2, endogenous cell surface human MSLN; test: flow cytometry, NCI-H226 cells
Procedure: as §1, §2

hMSLN-His-Avi [5] = target: T3, hMSLN-His-Avi (human, UniProt Q13421 296-598, single biotin on the Avi tag in the biotinylated form); test: ratio of SPR KDs
T3 construct: Monomeric; also called human MSLN-His-Avi; hMSLN-Avi-His
Procedure: (§3) 7.1 Binding of CD137/MSLN mAb2 to Human MSLN Under Avid Conditions—Antigen Capture Method Binding of all mAb^2 to MSLN immobilised on a BIAcore chip was tested to determine the binding affinity to human MSLN under avid conditions, where a high concentration of immobilised antigen is available to allow the antibody to bind avidly. […] The association time was 5 min and the dissociation time was 10 min. Running buffer was HBS-EP (GE Healthcare BR100188). Flow cells were regenerated by injecting Glycine-HCl pH1.5 at a flow rate of 30 μl/min for 30 seconds. Data were analysed by double referencing against a flow cell which was intentionally left blank (no antigen coating). The binding kinetics were fitted with a 1:1 Langmuir model to generate binding association (k_a) and dissociation (k_d) rates. Equilibrium binding constants (K_D) were calculated by dividing the dissociation rate by the association rate for each sample. Data analysis was performed with BiaEvaluation software version 3.2.
(§4) The association time was 5 min and the dissociation time was 5 min. Running buffer was HBS-EP (GE Healthcare BR100188). Flow cells were regenerated by injecting Glycine-HCl pH2.1 at a flow rate of 30 μl/min for 15 seconds. The data was analysed as described in Example 7.1.

hMSLN-His-Avi [6] = target: T3, hMSLN-His-Avi; test: SPR, mAb2 captured on Protein G, hMSLN-His-Avi in solution
Procedure: as §4

hMSLN-His-Avi [7] = target: T3, hMSLN-His-Avi; test: SPR, hMSLN-His-Avi immobilised ~100 RU, mAb2 injected
Procedure: as §3

cMSLN-His-Avi = target: T4, cMSLN-His-Avi (cynomolgus, single biotin on the Avi tag in the biotinylated form); test: SPR, mAb2 captured on Protein G, cMSLN-His-Avi in solution
T4 construct: Monomeric; also called cyno MSLN-His-Avi; cMSLN-Avi-His
T4 chain: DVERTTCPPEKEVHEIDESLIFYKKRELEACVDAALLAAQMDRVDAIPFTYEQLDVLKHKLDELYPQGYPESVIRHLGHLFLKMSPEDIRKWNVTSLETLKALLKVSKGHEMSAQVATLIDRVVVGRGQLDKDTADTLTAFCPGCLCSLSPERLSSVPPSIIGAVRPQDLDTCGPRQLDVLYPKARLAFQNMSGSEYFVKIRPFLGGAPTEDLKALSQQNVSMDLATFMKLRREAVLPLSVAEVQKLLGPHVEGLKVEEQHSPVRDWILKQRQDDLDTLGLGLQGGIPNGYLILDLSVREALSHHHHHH
Procedure: as §4

hMSLN-His-Avi [8] = target: T3, hMSLN-His-Avi; test: SPR, hMSLN-His-Avi immobilised
hMSLN-His-Avi [9] = target: T3, hMSLN-His-Avi; test: SPR, hMSLN-His-Avi in solution
hMSLN-His-Avi [10] = target: T3, hMSLN-His-Avi; test: ratio of SPR KDs; remark: listed apart in the source
[11] = target: T1, human CD137 on primary human CD8+ T …; test: cell-based or functional assay; remark: listed apart in the source

T3 sequence (Q13421 other isoform, or with tags, fused parts or gaps): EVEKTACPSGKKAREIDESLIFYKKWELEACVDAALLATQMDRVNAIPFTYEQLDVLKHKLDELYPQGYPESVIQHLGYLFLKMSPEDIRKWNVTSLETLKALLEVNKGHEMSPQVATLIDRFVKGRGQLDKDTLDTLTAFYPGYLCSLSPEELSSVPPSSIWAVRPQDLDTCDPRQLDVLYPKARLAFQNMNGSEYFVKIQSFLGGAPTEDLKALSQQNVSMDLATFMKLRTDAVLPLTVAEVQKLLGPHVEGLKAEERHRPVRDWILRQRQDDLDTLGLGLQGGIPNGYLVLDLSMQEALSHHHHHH
T2 sequence (Q13421 other isoform, or with tags, fused parts or gaps limits assumed): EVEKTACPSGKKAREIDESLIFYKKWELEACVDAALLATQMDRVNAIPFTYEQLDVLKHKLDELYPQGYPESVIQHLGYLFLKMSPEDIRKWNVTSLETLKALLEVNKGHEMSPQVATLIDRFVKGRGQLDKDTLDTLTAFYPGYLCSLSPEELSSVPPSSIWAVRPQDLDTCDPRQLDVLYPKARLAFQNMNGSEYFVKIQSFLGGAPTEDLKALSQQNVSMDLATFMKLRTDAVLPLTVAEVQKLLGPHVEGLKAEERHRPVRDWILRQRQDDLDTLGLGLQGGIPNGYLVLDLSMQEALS
T1 sequence (Q07011 24-255): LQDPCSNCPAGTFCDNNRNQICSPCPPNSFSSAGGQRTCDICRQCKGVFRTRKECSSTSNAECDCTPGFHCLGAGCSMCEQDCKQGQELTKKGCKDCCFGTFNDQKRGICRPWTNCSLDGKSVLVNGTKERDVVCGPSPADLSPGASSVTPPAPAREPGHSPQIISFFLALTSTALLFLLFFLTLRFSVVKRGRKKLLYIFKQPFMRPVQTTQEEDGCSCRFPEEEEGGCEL

Binder	Emax (IL-2 pg/ml), NCI-H226 co-culture, Donor A [1] [pg/mL]	IL-2 release EC50, NCI-H226 co-culture, Donor A [1] [nM]	fold change of IL-2 EC50 with 20 nM sMSLN against none, NCI-H226 co-culture [2] [fold]	EC50 [3] [nM]	Emax (MFI) [3] [MFI]	EC50 [4] [nM]	Emax (MFI) [4] [MFI]	KD ratio in solution/immobilised human MSLN (hMSLN-His-Avi [5])	Kd (hMSLN-His-Avi [6]) [nM]	Kd (hMSLN-His-Avi [7]) [nM]	Kd (cMSLN-His-Avi) [nM]	Kd (hMSLN-His-Avi [8]) [nM]	Kd (hMSLN-His-Avi [9]) [nM]	ratio of KD in solution/immobilised (hMSLN-His-Avi [10])	IL-2 release EC50, NCI-H226 co-culture, +2 nM sMSLN [11] [nM]	IL-2 release EC50, NCI-H226 co-culture, +20 nM sMSLN [11] [nM]	IL-2 release EC50, NCI-H226 co-culture, no sMSLN [11] [nM]	IL-2 release EC50, CD8+ T cell assay [2] [nM]
B1	2110	0.05	6.6	2.31	686000	0.613	801000	7	5.84	0.78	1.06	–	–	–	–	–	–	–
B2	–	–	–	–	–	–	–	–	–	–	–	19.8	55.9	2.8	–	–	–	–
B3	–	–	> 4	–	–	–	–	1.2	7.4	6	–	6	7.4	1.2	0.0616	0.366	0.0791	–
B4	–	–	> 4	–	–	–	–	0.7	7.6	10.7	–	10.7	7.6	0.7	0.13	0.684	0.122	–
B5	–	–	–	–	–	–	–	–	–	–	–	–	–	–	–	–	–	0.5
